The target of test [1] is T1, FLNCd18–21 (Homo sapiens, UniProt Q14315).
T1 construct: WT, residues 1943 to 2408 from UniProt ID Q14315; 6xHis (C); EEF (C); made in house; host or cells: E. coli BL21(DE3) pLysS
T1 sequence (Q14315 1943-2408): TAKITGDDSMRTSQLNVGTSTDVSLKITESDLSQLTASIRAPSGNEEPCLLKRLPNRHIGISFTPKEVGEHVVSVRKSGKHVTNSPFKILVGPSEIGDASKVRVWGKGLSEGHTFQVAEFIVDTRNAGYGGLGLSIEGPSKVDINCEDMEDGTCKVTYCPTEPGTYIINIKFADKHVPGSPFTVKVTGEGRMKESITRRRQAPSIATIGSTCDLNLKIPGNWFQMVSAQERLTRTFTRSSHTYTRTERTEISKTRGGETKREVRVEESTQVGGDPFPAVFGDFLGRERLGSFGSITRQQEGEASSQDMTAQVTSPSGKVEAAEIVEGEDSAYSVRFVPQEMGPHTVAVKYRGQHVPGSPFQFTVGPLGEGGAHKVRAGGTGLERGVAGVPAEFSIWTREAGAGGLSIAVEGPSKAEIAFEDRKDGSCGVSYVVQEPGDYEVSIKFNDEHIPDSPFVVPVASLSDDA
The experiment in a line: native MS peptide titration / complex detection with FLNCd18–21. The format is binding. To be noted: for complex formation with FLNCd18–21: native MS, 200 mM ammonium acetate pH 6.9, peptides at 30 μM with 5 μM FLNCd18–21 (fig. S5D). The source says:
To isolate a stable HspB1-FLNCd18–21 complex and localize the binding within HspB1, we performed native ion mobility MS (IM-MS) experiments. […] Next, we mixed FLNCd18–21 with either HspB1_84–171 or peptides mimicking the PPR, because this region is phosphorylated in the MLP KO mice (Fig. 1C) and generally upon biomechanical stress ([26]) and becomes exposed thereafter. This strategy of using segments of HspB1 meant that we could avoid the problems of insolubilization of the full-length protein upon interaction with FLNC d18–21, as well as generally mitigate the confounding effects associated with the chaperone’s intrinsic polydispersity.
By quantifying the relative abundances of FLNCd18–21 and the peptide-bound species, we could determine binding affinities (Fig. 4B, lower panel, and fig. S4G). We obtained similar dissociation constants (KDs) of 130 ± 17 μM (HspB1_80–88) and 110 ± 10 μM (^PHspB1_80–88), indicating weak binding that is not affected substantially by phosphorylation. These findings contrast with the notable effect of HspB1 phosphomimicry on the interaction of full-length chaperone with the FLNC fragment (Fig. 1E). However, they can be rationalized by phosphorylation increasing the effective concentration of the binding region by modulating its conformational state (Fig. 2B and fig. S3) and leading to dimer (Fig. 2D) and oligomer disassembly ([22], [23]). To localize binding of HspB1_80–88 to domains with Ig folds or to the d20 insertion (which is possibly disordered), we prepared a modified FLNC construct lacking the 82 insertion residues (FLNCd18–21,ΔI).
The region of human FLNC comprising domains 18 to 21 (WT, residues 1943 to 2408 from UniProt ID Q14315; ∆I, residues 1943 to 2408 excluding 2163 to 2243) was encoded in a modified pET23a/EEF with C-terminal 6× His and EEF tags. The plasmid was transformed into E. coli BL21(DE3) pLysS cells (Agilent). To generate the Mβ construct, mutations E2136R and I2138E were introduced by site-directed mutagenesis. Cells were grown in LB at 37°C until an OD600 of 0.6 to 0.8 was reached. […] Purity was assessed by SDS-PAGE, and protein was stored in MS buffer at −80°C and used for experiments within 2 weeks of purification, after noticing in initial preparations some propensity for destabilization and aggregation following long-term storage. […]
Because HspB1 can form disulfide-linked dimers, experiments involving the ACD were performed in the presence of 10-fold molar excess DTT. […] Native MS and IM-MS data were recorded on a Synapt G1 mass spectrometer (Waters) modified for the transmission of intact noncovalent protein complexes. HspB1_77–171 variants were analyzed at a concentration of 10 μM in 200 mM ammonium acetate (pH 6.9). […]

The next test deals with EEF-tagged FLNCd18–21. The experiment in a line: coimmunoprecipitation of recombinant proteins. The format is binding, human. To be noted: T7 antibody pull-down, 1 μg HspB1, 10 μg FLNCd18–21, 1 hour, room temperature. The method, then:
(§1) Next, to validate the interaction in vitro, we expressed EEF-tagged human FLNC domains 18 to 21, encompassing the apparent HspB1 binding site ([16]), and full-length human HspB1 attached to a T7 tag. […] To investigate the effect of HspB1 phosphorylation on the interaction, we expressed WT human HspB1 and ^3PHspB1, a triple mutant containing phosphomimetic Ser to Asp substitutions at residues 15, 78, and 82. Upon incubation with FLNCd18–21 in vitro, we noticed that mixtures accumulated insoluble protein aggregates, while isolated proteins remained soluble. […] The results support an interaction between HspB1 and FLNCd18–21 to form large complexes that can be modulated by phosphorylation of HspB1.
T7-tagged purified recombinant HspB1 protein (1 μg) was added to 10 μg of EEF-tagged recombinant FLNCd18–21 in immunoprecipitation (IP) buffer [0.05% Triton X-100, 1% bovine serum albumin, protease inhibitors (Roche mini complete EDTA-free tablets) in phosphate-buffered saline (PBS)] and incubated for 1 hour, shaking at room temperature. This was followed by another 30-min incubation, shaking at room temperature after the addition of 0.5 μg of anti-T7 (69522, Novagen) or mouse IgG2b isotype (ab18457, Abcam) antibody. Next, 25 μl of protein G Sepharose resin (PC-G5, Generon) was added to each tube and incubated for 1 hour, shaking at room temperature. […]

Test [2] addresses T1, FLNCd18–21. Nature of the test: SDS-PAGE aggregation assay with FLNCd18–21. The format is biochemical. To be noted: 80 μM HspB1 + 40 μM FLNCd18–21 (2:1), 200 mM ammonium acetate pH 6.9, 500 μM DTT, 25°C, 90 min, densitometry. The method, then:
as §1
HspB1 (WT or 3P) was mixed with FLNCd18–21 at a 2:1 ratio (80 and 40 μM, respectively) in 200 mM ammonium acetate (pH 6.9) with 500 μM DTT and incubated at 25°C for 90 min. Aliquots were removed periodically and pelleted at 13,000g at 10°C for 10 min. Soluble fractions were diluted threefold with 200 mM ammonium acetate for analysis by SDS-PAGE, and pellets were resuspended in the same volume of 200 mM ammonium acetate and solubilized upon addition of the SDS-PAGE loading buffer. Gel bands were quantified by densitometry, using the raw intensities of FLNC and HspB1 bands to extract relative soluble and insoluble proportions at each time point.

Test [3] addresses T2, human FLNC domains 18 to 21 (FLNC_(d18–21)), EEF-tagged (human, UniProt Q14315 1943-2408).
T2 construct: human filamin C, domains 18 to 21, residues 1943 to 2408 of UniProt Q14315; Modified pET23a/EEF vector; No cleavage of the tags is described; also called FLNC fragment; source: E. coli BL21(DE3) pLysS, purified (HisTrap, SEC Superdex 200); not shown: EEF, C-terminal, kept
T2 sequence (looked up): T1 sequence (Q14315 1943-2408)
Nature of the test: native MS; native IM-MS of mixtures of FLNC_(d18–21) or FLNC_(d18–21,ΔI) with HspB1_(84–171), HspB1 peptides or an excess of control peptides; 200 mM ammonium acetate pH 6.9. To be noted: both partners purified.

Test [4] concerns the target T2, human FLNC domains 18 to 21 …. The experiment in a line: cell-based or functional assay.
Test [5] shares this target. The experiment in a line: native MS; titration: FLNC_(d18–21) constant at 5 μM, peptide 5 to 160 μM, 200 mM ammonium acetate pH 6.9, acetonitrile vapor; fit with three equivalent binding sites (UniDec). Conditions: both partners purified.

No end group written: not given here. Where only a bound is given, the exact number is not on record here.

For “HspB1_84–171: Human HspB1 α-crystallin domain (ACD)”, the entries for the “complex formation with FLNCd18–21” value with FLNCd18–21 [1] and with FLNCd18–21 [1] (listed as HspB184-171) were “Complexes were not observed” and “No complex is observed”, respectively.

For “HspB1_177–186: Peptide from human HspB1, C-terminal residues 177 to 186 (NEITIPVTFE; UniProt P04792 177-186, looked up, fragment) [reference compound]”, the “complex formation with FLNCd18–21” value with FLNCd18–21 [1] is “No appreciable complex is detected”.

With QLSSGVSEI [HspB1_80–88], the Kd on FLNCd18–21 [1] (native MS titration, 5 μM FLNCd18–21, 5 to 160 μM peptide, 200 mM ammonium acetate pH 6.9, minimum three technical repeats, model of three equivalent binding sites, 500 bootstraps, apparent KD, read-out: dissociation constant KD (apparent)) was over 100 µM.

Regarding “T7-tagged HspB1: Full-length WT HspB1 with an N-terminal T7 tag”, the “coimmunoprecipitation of FLNCd18–21” value in the test on EEF-tagged FLNCd18–21 is “pulled down both HspB1 and FLNCd18–21”; with EEF-tagged FLNCd18–21 (listed as full-length human HspB1 attached to a T7 tag), “confirming a direct interaction”.

Turning to WT human HspB1: Full-length WT HspB1, the “migration to pelleted fraction of mixture with FLNCd18–21” value in the test with FLNCd18–21 [2] is “both proteins migrated to the pelleted fraction over time”.

For the molecule “^3PHspB1: Full-length human HspB1 with Ser to Asp phosphomimic substitutions at residues 15, 78 and 82”, the “migration to pelleted fraction of mixture with FLNCd18–21” value with FLNCd18–21 [2] is “substantially increased by phosphomimicry”.

B1: ^PHspB1_(80–88) phosphorylated peptide (peptide, UniProt P04792 80-88, looked up)
peptide: QLSSGVSEI
modifications: also: phosphorylated, site not given here
notes: N-terminal acetylation open as for m13; also called phosphopeptide; source: synthetic peptide, bought: Biomatik
The term stoichiometry N denotes a count of units in the complex or per binding partner. On to B1, for which, in test [3], the “stoichiometry N” value is at most 2. Further, the “activation required for the transition of unfolding intermediate B to final state C of FLNC_(d18–21) with one peptide bound (coulombically steered unfolding, IM-MS)” value in test [4] was about 75 V. In addition, in test [5], the Kd is 110 ± 10 µM and the “stoichiometry N” value is at most 3.

For the origin of these results see paper PMC6530996, “HspB1 phosphorylation regulates its intramolecular dynamics and mechanosensitive molecular chaperone interaction with filamin C” (Science Advances, 2019).
